Patent publication US20220387557A1 (OXFORD UNIVERSITY INNOVATION, published 2022)

Columns and labels:
[1] = molecular target: T1, Fc tagged human TNFR1 (Sino Biological) (human, UniProt P19438 22-211, limits assumed); assay: SPR, Biacore single cycle kinetics, stability study, before freezing (t=0)
T1 construct: Bought reagent; also called hTNFR1; hTNFR1-Fc; not shown: Fc tag of the bought protein
T1 sequence (looked up): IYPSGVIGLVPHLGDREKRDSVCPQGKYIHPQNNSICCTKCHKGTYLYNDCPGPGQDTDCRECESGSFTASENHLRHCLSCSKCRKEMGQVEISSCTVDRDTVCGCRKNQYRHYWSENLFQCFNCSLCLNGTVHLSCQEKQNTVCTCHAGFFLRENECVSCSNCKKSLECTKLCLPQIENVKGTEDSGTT
Procedure: Due to the limit in the number of available flow cells for analysis (three Fc per analysis, Fc2, Fc3 and Fc4, with Fc1 always being used as blank reference for non-specific subtraction), receptor binding was assessed in two separate overlapping runs using either: hTNFR1 (Fc2), hTNFR2 (Fc3) and mTNFR1 (Fc4), or; hTNFR1 (Fc2), […] and mTNFR2 (Fc4). Receptors were diluted in running buffer to a concentration of ˜4 μg/mL and at the start of each cycle loaded onto Fc2, Fc3 and Fc4 of a Protein A chip (GE Healthcare, Little Chalfont, UK) at a flow rate of 10 μL/min to give an RU of 40-100. The surface was then allowed to stabilise. Single cycle kinetic data was obtained at a flow rate of 45 μL/min. […] The association phase for the three injections of increasing concentrations of TNF was monitored for 240 seconds and a single dissociation phase was measured for 2700 seconds following the last injection of TNF. Regeneration of the Protein A surface was conducted using 10 mM glycine-HCl pH 1.5. The signal from the reference channel Fc1 (no receptor) was subtracted from that of Fc2, Fc3 and Fc4 to correct for differences in non-specific binding to a reference surface.
At day zero (prior to freezing) and following thawing on ice after 3 months and 1 year the following assays were performed: [0341] SDS-PAGE [0342] OD280 nm [0343] Single cycle Biacore for binding to hTNFR1, hTNFR2 and mTNFR1

[2] = molecular target: T1, Fc tagged human TNFR1 (Sino Biological); assay: SPR, Biacore T200 multi cycle kinetics, receptor-Fc captured on Protein A chip, TNF 1.25-40 nM, 1:1 model
Procedure: (§1) Multi cycle kinetics analysis of binding to hTNFR1, hTNFR2, mTNFR1 and mTNFR2 was performed on the 10 lead variants using a Biacore T200 (serial no. 1909913) instrument running Biacore T200 Evaluation Software V3.0.1 (Uppsala, Sweden) to characterise further the binding to these receptors.
(§2) As with the single cycle kinetics, receptor binding was assessed in two separate experiments. In the first set of experiments binding to hTNFR1 (Fc2), hTNFR2 (Fc3) and mTNFR1 (Fc4) was assessed. In the second set of experiments the extent of mTNF2 (Fc4) binding was assessed using hTNFR1 (Fc2) and hTNFR2 (Fc3) as controls. All receptors were diluted in running buffer to a concentration of ˜4 μg/mL and at the start of each cycle loaded onto Fc2, Fc3 and Fc4 of a Protein A CM5 chip and captured at a flow rate of 10 μL/min to give an RU of ˜40-100. The surface was then allowed to stabilise. All kinetic data was obtained using a flow rate of 75 μl/min to minimise any potential mass transfer effects. […] The association phase of TNF was monitored for 280 seconds and the dissociation phase was measured for 2100 seconds. […] Regeneration of the Protein A surface was conducted using two injections of 10 mM glycine-HCL pH 1.5 at the end of each cycle. The signal from the reference channel Fc1 was subtracted from that of Fc2, Fc3 and Fc4 to correct for differences in non-specific binding to a reference surface, and a global Rmax parameter was used in the 1-to-1 binding model.

[3] = molecular target: T2, Fc tagged human TNFR2 (Sino Biological) (human, UniProt P20333 23-257); assay: as above
T2 construct: Bought reagent; also called hTNFR2; hTNFR2-Fc; not shown: Fc tag of the bought protein
T2 sequence (looked up): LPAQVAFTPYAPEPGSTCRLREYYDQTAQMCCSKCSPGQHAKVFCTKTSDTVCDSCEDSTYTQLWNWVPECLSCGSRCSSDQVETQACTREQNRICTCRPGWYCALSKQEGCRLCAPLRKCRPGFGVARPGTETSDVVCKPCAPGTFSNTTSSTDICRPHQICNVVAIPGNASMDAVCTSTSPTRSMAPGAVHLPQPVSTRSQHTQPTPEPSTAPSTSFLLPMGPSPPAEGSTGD
Procedure: as §1, §2

[4] = molecular target: T3, Fc tagged mouse TNFR1 (Sino Biological) (mouse, UniProt P25118 22-212, limits assumed); assay: as above
T3 construct: Bought reagent; also called mTNFR1; mTNFR1-Fc; not shown: Fc tag of the bought protein
T3 sequence (looked up): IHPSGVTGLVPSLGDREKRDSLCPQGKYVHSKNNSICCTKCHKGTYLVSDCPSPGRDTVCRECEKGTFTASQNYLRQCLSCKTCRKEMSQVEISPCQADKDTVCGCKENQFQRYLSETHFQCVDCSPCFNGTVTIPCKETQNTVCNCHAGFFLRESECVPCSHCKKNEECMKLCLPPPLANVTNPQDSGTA
Procedure: as §1, §2

B1: TNF mutein B2 (ligand)
chain: VRSSSRTPSDKPVAHVVANPQAEGQLQWLNRRANALLANGVELRDNQLVVPSEGLYLIYSQVLFKGQGCPSTHVLLTHTISRITASYSGKVNLLSAIKSPCQRETPEGAEAKPWYEPIYLGGVFQLEKGDRLSAEINRPDYLDFAESGQVYFGIIAL
notes: Human TNF mutein, TASYSG at positions 84-89; not shown: C-terminal FLAG tag and His6 tag from vector pANT65
B1 showed a Kd [1] of 0.0175 nM, a Kd [2] of 0.0216 nM and a Kd [3] of 0.407 nM. It also gave a Kd [4] of 0.177 nM.
